Consider three molecules from patent US20070104732A1 (published 2007).

What all share (experiment): cell-based or functional assay
The target in experiment [1] is cellular proteins integrins.
Experiment [2] has as its target EGFR-Ecoil pseudoreceptor (UniProt P00533).
Experiment [3] deals with EGFR-Ecoil pseudoreceptor (UniProt P00533 646-1210).

In experiment [1], “Modified fiber FK4mm-RGD of AdFK4mmRGD/GFP (S->E at aa 408, P->A at aa 409, RGD motif in the HI-loop, K4 K-coil at the C-terminus) (from UniProt P11818 1-581)” displayed a transduction efficiency of AdFK4mmRGD/GFP in HeLa-rtTA and A549-tTA cells relative to AdFK4m/GFP (GFP expression, flow cytometry) of 3 to 6 fold; a transduction of 293E cells by AdFK4mmRGD/GFP relative to AdFK4m/GFP (GFP expression, flow cytometry) of 2 to 3 times.
For the molecule K-coil soluble peptide, the inhibition of AdFK4m/GFP mediated GFP gene transfer in 293E cells after pre-incubation with 2 ug K-coil soluble peptide, MOI 0.05 in experiment [2] turned out to be 80%.

B1: Chimeric adenoviral fiber FK4m of AdFK4m/GFP (S->E at aa 408, K4 K-coil at the C-terminus) (other)
chain (part 1 of 2): MKRARPSEDTFNPVYPYDTETGPPTVPFLTPPFVSPNGFQESPPGVLSLRLSEPLVTSNGMLALKMGNGLSLDEAGNLTSQNVTTVSPPLKKTKSNINLEISAPLTVTSEALTVAAAAPLMVAGNTLTMQSQAPLTVHDSKLSIATQGPLTVSEGKLALQTSGPLTTTDSSTLTITASPPLTTATGSLGIDLKEPIYTQNGKLGLKYGAPLHVTDDLNTLTVATGPGVTINNTSLQTKVTGALGFDSQGNMQLNVAGGLRIDSQNRRLILDVSYPFDAQNQLNLRLGQGPLFINSAHNLDINYNKGLYLFTASNNSKKLEVNLSTAKGLMFDATAIAINAGDGLEFGSPNAPNTNPLKTKIGHGLEFDSNKAMVPKLGTGLSFDSTGAITVGNKNNDKLTLWTTPAPEPNCRLNAEKDAKLTLVLTKCGSQILATVSVLAVKGSLAPISGTVQSAHLIIRFDENGVLLNNSFLDPEYWNFRNGDLTEGTAYTNAVGFMPNLSAYPKSHGKTAKSNIVSQVYLNGDKTKPVTLTITLNGTQETGDTTPSAYSMSFSWDWSGHNYINEIFATSSYTFSYIAQE
chain (part 2 of 2): KVSALKEKVSALKEKVSALKEKVSALKE
B1: in experiment [3], the “transduction efficiency (GFP expression, flow cytometry) of AdFK4m/GFP in 293E cells compared with 293 cells, MOI 0.01” value came out at 7 fold; the “transduction efficiency (GFP expression, flow cytometry) of AdFK4m/GFP in 293E cells compared with 293 cells, MOI 0.05” value came to 24 fold; the “transduction efficiency (GFP expression, flow cytometry) of AdFK4m/GFP in 293E cells compared with 293 cells, MOI 0.5” value was 11 fold; the “transduction efficiency (GFP expression, flow cytometry) of AdFK4m/GFP in 293E cells compared with 293 cells, MOI 0.8” value came out at 8 fold.
